Measurements from US20250009854A1.
pIC50: −log10 of the molar value.

Biological target: NL63 trimer (human coronavirus NL63)

Row | Substance | pIC50
1 | flACE2-Fc-WT (Fc fusion) | 7.28
2 | trACE2-Fc-WT (Fc fusion) | 7.00
